What was measured:
[1] = target: T1, GARS, endogenous in H929 multiple myeloma cells (human, UniProt P41250 37-739, limits assumed); experiment: flow cytometry, H929 + vehicle; None 2.74; surface target GARS putative
T1 construct: Native protein pulled down from H929 lysates; also called Glycyl-tRNA synthetase; GlyRS
T1 sequence: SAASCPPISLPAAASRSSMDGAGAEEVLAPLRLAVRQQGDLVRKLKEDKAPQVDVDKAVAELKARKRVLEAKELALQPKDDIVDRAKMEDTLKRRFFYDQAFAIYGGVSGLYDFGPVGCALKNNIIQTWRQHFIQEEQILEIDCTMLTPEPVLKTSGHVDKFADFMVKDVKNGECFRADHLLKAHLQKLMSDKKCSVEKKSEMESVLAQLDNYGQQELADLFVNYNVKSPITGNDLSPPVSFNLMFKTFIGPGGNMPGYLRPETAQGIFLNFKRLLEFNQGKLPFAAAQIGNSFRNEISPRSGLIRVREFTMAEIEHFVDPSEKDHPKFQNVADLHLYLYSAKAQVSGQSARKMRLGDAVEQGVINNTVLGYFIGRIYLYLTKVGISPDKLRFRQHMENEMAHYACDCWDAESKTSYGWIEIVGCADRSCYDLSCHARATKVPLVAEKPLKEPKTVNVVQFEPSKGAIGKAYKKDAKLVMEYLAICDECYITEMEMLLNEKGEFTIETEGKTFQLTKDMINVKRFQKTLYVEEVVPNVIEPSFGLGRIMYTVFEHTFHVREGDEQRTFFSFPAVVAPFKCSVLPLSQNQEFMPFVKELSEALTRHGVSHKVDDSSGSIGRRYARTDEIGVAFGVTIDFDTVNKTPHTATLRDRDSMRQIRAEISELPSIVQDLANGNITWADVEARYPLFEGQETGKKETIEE

[2] = target: T1, GARS, endogenous in H929 multiple …; experiment: flow cytometry, H929 + GARS siRNA (siRNA against the putative target); None 0.2
[3] = target: T1, GARS, endogenous in H929 multiple …; experiment: flow cytometry, H929 + ICAM1 siRNA; None 1.06; surface target GARS putative
[4] = target: T1, GARS, endogenous in H929 multiple …; experiment: flow cytometry, H929 + PTPRG siRNA; None 2.13; surface target GARS putative
ICAM1-Fc (R&D Systems) = target: T2, ICAM1-Fc (R&D Systems) (human, UniProt P05362 28-480); experiment: ELISA on coated ICAM1-Fc
T2 construct: Bought; also called ICAM-1/CD54; not shown: Fc of the bought fusion protein
T2 sequence (P05362 28-480): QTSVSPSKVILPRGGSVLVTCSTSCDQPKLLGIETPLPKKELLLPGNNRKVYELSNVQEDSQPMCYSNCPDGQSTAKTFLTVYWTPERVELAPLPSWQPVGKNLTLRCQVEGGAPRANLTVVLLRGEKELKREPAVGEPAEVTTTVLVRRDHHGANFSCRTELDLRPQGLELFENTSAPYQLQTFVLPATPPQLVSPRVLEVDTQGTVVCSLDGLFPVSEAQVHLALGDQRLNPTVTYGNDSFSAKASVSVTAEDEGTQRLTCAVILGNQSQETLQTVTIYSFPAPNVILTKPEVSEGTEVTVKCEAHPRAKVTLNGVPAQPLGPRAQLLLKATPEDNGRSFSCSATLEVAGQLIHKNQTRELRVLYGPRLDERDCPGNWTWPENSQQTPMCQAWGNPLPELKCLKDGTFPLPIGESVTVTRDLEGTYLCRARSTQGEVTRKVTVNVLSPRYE
Protocol: (§1) Recombinant purified ECDs (50-150 ng) of each putative target protein were coated, incubated with 150 ng of the indicated primary antibody, and binding was detected using a peroxidase-conjugated anti-human Fab secondary antibody. Heatmap represents averages of technical triplicates. (8B) Target validation via siRNA knockdown. H929 cells were transfected with siRNA pools targeting the putative antibody targets ICAM1, CADM1, and PTPRG. Cells were then subjected to cognate IgG binding analysis via flow cytometry. (NT, non-targeting siRNA).
(§2) ELISA ELISA was conducted as described previously. Briefly, 50-150 ng of antigen was coated overnight in half-area 96-well plates at 4° C., blocked with 3% BSA at 37° C. for 1 h, and 150 ng of chimeric rabbit/human IgG1 was added, incubating for 2 h at 37° C. […] After incubating at 37° C. for 15 min-1 h (depending on intensity of controls), data were acquired using a SpectraMax M5 plate reader (Molecular Devices).

[5] = target: T3, PTPRG, endogenous in H929 multiple myeloma cells (human, UniProt P23470 20-1445); experiment: flow cytometry, IgG1 on H929 cells
T3 construct: Native protein on H929 cells (flow cytometry, siRNA knockdown) and in H929 lysates (IP/MS); also called phosphatase receptor type γ
T3 sequence (P23470 20-1445 limits assumed): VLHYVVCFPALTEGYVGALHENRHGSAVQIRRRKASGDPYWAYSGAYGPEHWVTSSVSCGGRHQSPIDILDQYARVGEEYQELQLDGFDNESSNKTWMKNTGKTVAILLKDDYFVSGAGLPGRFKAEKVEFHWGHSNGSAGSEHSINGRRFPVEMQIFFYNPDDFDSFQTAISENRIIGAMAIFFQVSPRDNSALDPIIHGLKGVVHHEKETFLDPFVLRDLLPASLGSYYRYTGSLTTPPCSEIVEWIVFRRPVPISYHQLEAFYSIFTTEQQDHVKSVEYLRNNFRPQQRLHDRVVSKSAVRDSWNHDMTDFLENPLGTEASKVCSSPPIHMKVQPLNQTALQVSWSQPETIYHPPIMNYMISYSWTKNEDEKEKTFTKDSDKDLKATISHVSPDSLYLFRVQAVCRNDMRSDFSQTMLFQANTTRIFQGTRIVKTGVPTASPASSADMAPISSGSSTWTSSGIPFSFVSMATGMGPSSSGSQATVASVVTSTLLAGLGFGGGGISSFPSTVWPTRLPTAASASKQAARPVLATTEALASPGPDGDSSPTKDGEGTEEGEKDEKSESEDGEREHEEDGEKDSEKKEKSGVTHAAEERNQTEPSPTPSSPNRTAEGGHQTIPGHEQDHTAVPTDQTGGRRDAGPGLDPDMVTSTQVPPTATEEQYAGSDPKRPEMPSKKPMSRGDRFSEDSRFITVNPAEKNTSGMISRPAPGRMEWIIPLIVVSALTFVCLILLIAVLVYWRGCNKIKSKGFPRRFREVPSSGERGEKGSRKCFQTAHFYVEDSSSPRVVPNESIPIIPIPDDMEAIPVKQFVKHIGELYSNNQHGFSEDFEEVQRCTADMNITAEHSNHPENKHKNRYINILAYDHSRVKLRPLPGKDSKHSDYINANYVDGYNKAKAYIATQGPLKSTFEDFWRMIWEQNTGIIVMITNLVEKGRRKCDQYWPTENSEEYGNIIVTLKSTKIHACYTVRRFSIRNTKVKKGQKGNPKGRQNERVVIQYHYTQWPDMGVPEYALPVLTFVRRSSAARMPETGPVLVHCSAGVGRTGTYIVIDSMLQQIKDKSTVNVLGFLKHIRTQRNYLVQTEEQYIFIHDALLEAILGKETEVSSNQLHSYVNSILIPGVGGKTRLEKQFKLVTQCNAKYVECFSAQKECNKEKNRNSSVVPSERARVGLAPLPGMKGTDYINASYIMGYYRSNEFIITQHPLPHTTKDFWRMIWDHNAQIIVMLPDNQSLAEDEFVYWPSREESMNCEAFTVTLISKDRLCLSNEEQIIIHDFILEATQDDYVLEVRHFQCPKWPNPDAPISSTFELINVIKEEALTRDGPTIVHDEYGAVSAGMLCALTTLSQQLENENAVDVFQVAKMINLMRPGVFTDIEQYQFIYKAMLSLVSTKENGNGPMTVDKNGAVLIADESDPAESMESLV
Protocol: Staining protocol. Cells were harvested (5×10⁴ cells per sample), washed once with phosphate-buffered saline (PBS) at RT, and a second time with ice-cold FACS buffer (PBS, 0.5% BSA, 2 mM EDTA, 0.1% NaN₃). Cells were stained in 50 μL of primary antibody for 30 min on ice, washed twice with 100 μL FACS buffer, stained with 50 μL of diluted secondary antibody, washed two more times in FACS, and then resuspended in 50 μL FACS buffer. Samples were acquired on an Accuri C6 Plus or a BD FACSCanto II flow cytometer (both from BD Biosciences). Data were analyzed using FlowJo version 10 software. Primary antibodies: Fab (10 μg/mL), IgG1 (0.1 to 50 μg/mL), or 25 μL polyclonal Fabs from periplasmic extracts. Polyclonal Fabs were produced by diluting bacterial stocks by a factor of 100 in autoinduction media and incubating overnight to induce expression as previously described. […] Viability stains: DAPI (Cell Signaling Technology) or SYTOX AADvanced Dead Cell Stain (Thermo Fisher Scientific). Labeling: The panel of chimeric rabbit/human IgG1s was labeled using the Alexa Fluor 647 Labeling Kit (Thermo Fisher Scientific, #A20173) to facilitate single-step staining. Competition: Unlabeled IgG1s were added at saturating concentrations of 60 μg/mL to block the target receptors, incubating on ice for 30 min, followed by the addition of an equal volume of the Alexa Fluor 647 labeled antibody at 2 μg/mL, and the mixture was incubated on ice for another 30 min.

[6] = target: T4, CADM1-His (Acro Biosystems) (human, UniProt Q9BY67 45-374); experiment: ELISA on coated CADM1-His
T4 construct: Bought; also called CADM1/IGSF4A; not shown: His tag of the bought protein
T4 sequence: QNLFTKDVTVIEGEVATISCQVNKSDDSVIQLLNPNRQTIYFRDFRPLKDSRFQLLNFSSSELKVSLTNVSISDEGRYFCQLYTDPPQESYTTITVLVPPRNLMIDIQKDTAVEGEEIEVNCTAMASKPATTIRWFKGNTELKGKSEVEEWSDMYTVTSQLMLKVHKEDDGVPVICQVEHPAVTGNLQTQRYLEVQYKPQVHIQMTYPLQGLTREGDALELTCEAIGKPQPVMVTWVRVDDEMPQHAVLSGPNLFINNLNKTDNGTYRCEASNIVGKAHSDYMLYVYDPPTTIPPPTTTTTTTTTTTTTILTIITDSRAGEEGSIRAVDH
Protocol: as §1, §2

Binder	Cells stained (%) [1] [%]	Cells stained (%) [2] [%]	Cells stained (%) [3] [%]	Cells stained (%) [4] [%]	binding result (ICAM1-Fc (R&D Systems))	antibody-bound positive cells (%) [5] [%]	binding result [6]
HW-8 chimeric rabbit-human IgG1 LA/LA/PG (antibody, V domains shown, Fc-silenced (L234A/L235A/P329G) IgG1, kappa; Alexa Fluor 647-labeled in single-step flow cytometry; Cluster C-45) VH: QSLEESGGRLVTPGTPLTLTCTVSGFSLSSYAMSWVRQAPGKGLEWIGAISTGGSTTYASWAKGRFTISKTSSTTVDLKMTSLTTEDTATYFCVRHFRLWGPGTLVTISS VL: QVLTQTPSSVSAAVGGTVTIKCQASQSIGSALAWFQQKPGQRPKLLIYRASNLASGVPSRFKGSGSGTEFALTISGVQREDAATYYCLGGAAAVWAFGAGTNVEIKR	84.7	99	76.3	84.3	–	–	–
HW-42 chimeric rabbit-human IgG1 LA/LA/PG (antibody, V domains shown, Fc-silenced (L234A/L235A/P329G) IgG1, lambda; Alexa Fluor 647-labeled in single-step flow cytometry; Cluster C-1) VH: QSVKESEGGLFKPADTLTLTCTVSGFSLSSNEISWVRQAPGEGLEYIGIIDTGGRAYYAVWARSRSTITRNTNLNTVTLKMTSLTAADTATYFCARGGVDTEWYAFSSWGPGTLVTVPS VL: SFVLTQPASVQVNLGQTVSLTCTADTLSRRYASWYQQKPGQAPVLLIFRDTSRPSGVPDRFSGSSSGDTATLTISGAQAGDEADYYCATSDGSGSNYQYVFGGGTQLTVTG	–	–	–	–	no binding (tested: 150 ng IgG1 per well)	99.8	no binding (tested: 150 ng IgG1 per well)
HW-70 chimeric rabbit-human IgG1 LA/LA/PG (antibody, V domains shown, Fc-silenced (L234A/L235A/P329G) IgG1, lambda; Alexa Fluor 647-labeled in single-step flow cytometry; Cluster C-1) VH: QSLEESGGRLVTPGTPLTLTCTVSGFSLSSNAMSWVRQAPGKGLEWIGTIDGYGYTYYASWAKGRFTVSKTSTTVDLKITSPTTEDTATYFCAREIYLGSNFWGPGTLVTISS VL: SFVLTQPASVQVNLGQTVSLTCTADTLSRRYASWYQQKPGQAPVLLIYRDTSRPSGVPDRFSGSSSGNTATLTISGAQAGDEADYYCATADGSGSSYQFVFGGGTQLTVTG	–	–	–	–	no binding (tested: 150 ng IgG1 per well)	99.8	no binding (tested: 150 ng IgG1 per well)
HW-25 chimeric rabbit-human IgG1 LA/LA/PG (antibody, V domains shown, Fc-silenced (L234A/L235A/P329G) IgG1, lambda; Alexa Fluor 647-labeled in single-step flow cytometry; Cluster C-1) VH: QSLEESGGRLVTPGTPLTLTCTVSGFSLSSYAMGWVRQAPGKGLEWIGIIDSRGSTYYATWAKGRFTISKTSTTVDLKITSPTTEDTATYFCAREDSYYYDSFNLWGPGTLVTVSS VL: SFVLTQPASVQVNLGQTVSLTCTADTLSRRYASWYQQKPGQAPVLLIYRDTSRPSGVPDRFSGSSSGNTATLTISGAQAGDEADYYCATSDGSGSSYQCVFGGGTQLTVTG	–	–	–	–	no binding (tested: 150 ng IgG1 per well)	99.6	no binding (tested: 150 ng IgG1 per well)
HW-45 chimeric rabbit-human IgG1 LA/LA/PG (antibody, V domains shown, Fc-silenced (L234A/L235A/P329G) IgG1, lambda; Alexa Fluor 647-labeled in single-step flow cytometry; Prototype of cluster C-45) VH: QKQLVESGGRLVTPGTPLTLTCTVSGFSLSSYAMGWFRQAPGKGLEWIGIINSYGSTYYASWAKGRFTISKTSTTVDLKITSPTTEDTATYFCGRRIGSARFDPWGPGTLVTVSS VL: SFVLTQPASVQVNLGQTVSLTCTADTLSRSYASWYQQKPGQAPVLLIYRDTRRPSGVPDRFSGSSSGNTATLTISGAQAGDEADYYCATSDGSGSSYRLVFGGGTQLTVTG	96.8	98.5	95.1	97.3	–	–	–
HW-17 chimeric rabbit-human IgG1 LA/LA/PG (antibody, V domains shown, Fc-silenced (L234A/L235A/P329G) IgG1, lambda; Alexa Fluor 647-labeled in single-step flow cytometry; Cluster C-1) VH: QSLGESRGRLVTPDETLTLTCTVSGIDLSSNAMSWVRQAPGEGLEWIGTINTGGRAYYASWAKGRFTISRTSTTVDLKMTSLTTEDTATYFCARERYSDGRAYDIWGPGTLVTISS VL: SFVLTQPASVQVNLGQTVSLTCTADTLSRRYASWYQQKPGQAPVLLIYTDSNRPSGIPDRFSGSSSGNTATLTISGAQAGDEADYYCATDDGSGSIYQYVFGGGTQLTVTG	–	–	–	–	–	100	–
HW-1 chimeric rabbit-human IgG1 LA/LA/PG (antibody, V domains shown, Fc-silenced (L234A/L235A/P329G) IgG1, lambda; Alexa Fluor 647-labeled in single-step flow cytometry; Prototype of cluster C-1) VH: QSLEESGGGLFKPTDTLTLTCTASGFSLGSSYAISWVRQAPGKELEWIGTIDSGRAYYARWAKSRSTITRNTNENTVTLKMTSLTAADTATYFCARDLIPTYSQDIWGPGTLVTISS VL: SFVLTQPASVQVNLGQTVSLTCTADTLSRRYASWYQQKPGQAPVLLIYRDTSRPSGVPDRFSGSSSGNTATLTISGAQAGDEADYYCATSDGSGNSYQYVFGGGTQLTVTS	–	–	–	–	–	100	–
HW-28 chimeric rabbit-human IgG1 LA/LA/PG (antibody, V domains shown, Fc-silenced (L234A/L235A/P329G) IgG1, lambda; Alexa Fluor 647-labeled in single-step flow cytometry; Cluster C-45) VH: QKQLVESGGRLVTPGTPLTLTCTASGFSLSSNAMSWVRQAPGEGLQWIGTISSGGSTYYASWAKGRFTISKTSTTVTLKMTSLTTEDTATYFCARGADLHRLWGPGTLVTVSS VL: SFVLTQPASVQVNLGQTVSLTCTGKPLSRSFASWYQQKPGQAPVLVIYRDTSRPSGVPDRFSGSSSGNTATLTISGAQAGDEADYYCATSDGSGSSYQYVFGGGTQLTVTG	98.6	98.3	96.9	98.6	no binding (tested: 150 ng IgG1 per well)	–	–
TH9-0022 (antibody, human IgG1, kappa, L234A L235A, V domains shown, also called TH9-022; negative control) VH: QSLEESGGRLVTPGTPLTLTCTVSGFSLSSYAMNWVRQAPGKGLEWIGIINSYGSTYYASWAKGRFTISKTSTTVDLKITSPTTEDTATYFCARVTYDSYGYGYAPYGMDLWGPGTLVTVSS VL: LVMTQTPSSTSNAVGGTVTIKCQASQSIGNVLAWYQQKPGQPPKLLIYAASTLASGVPSRVGGSRSGTEYTLTISGVQREDAATYYCLGSDSDSDIAFGGGTELEILR	–	–	–	–	no binding (tested: 150 ng IgG1 per well)	–	no binding (tested: 150 ng IgG1 per well)
TH9-0022 (antibody, human IgG1, kappa, L234A L235A, V domains shown, also called TH9-022; negative control IgG1) VH: QSLEESGGRLVTPGTPLTLTCTVSGFSLSSYAMNWVRQAPGKGLEWIGIINSYGSTYYASWAKGRFTISKTSTTVDLKITSPTTEDTATYFCARVTYDSYGYGYAPYGMDLWGPGTLVTVSS VL: LVMTQTPSSTSNAVGGTVTIKCQASQSIGNVLAWYQQKPGQPPKLLIYAASTLASGVPSRVGGSRSGTEYTLTISGVQREDAATYYCLGSDSDSDIAFGGGTELEILR	–	–	–	–	–	2.7	–
